In the RNAGym collection of RNA variant scans (doi:10.7554/elife.80360) one finds self-cleavage data, which are given here for 167 variants.

The chains are these.
B1: Hammerhead Ribozyme (parent)
chain: ACCGGAUGUGCUUUCCGGUCUGAUGAGUCCGUGAGGACGAAACAG

In this data set the parent is B1. The experiment in a line: self-cleavage, relative activity (ratio to wild type); higher = more cleavage; co-transcriptional.
Consider A6G A37G, for which the self-cleavage was found to be 0.674.

For the variant A6G A37U, the self-cleavage turned out to be 0.44.

Take A6G A37C: the self-cleavage stood at 0.656.

Take G5U G31C: the self-cleavage was 1.03.

G5U G31U: the self-cleavage was found to be 1.2.

On to G5U G31A, for which the self-cleavage is 1.25.

Turning to A6C U9A, the self-cleavage worked out at 0.479.

Regarding A6C U9G, the self-cleavage turned out to be 0.578.

Take A6C U9C: the self-cleavage was 0.486.

As to G5U U9C, the self-cleavage worked out at 0.881.

G5U U9G: the self-cleavage was determined as 0.523.

With G5U U9A, the self-cleavage amounted to 0.723.

As to A6G G8C, the self-cleavage is 0.708.

Consider A6G G8U, for which the self-cleavage worked out at 0.844.

For the variant A6G G8A, the self-cleavage worked out at 1.17.

With A6G G17U, the self-cleavage is 0.393.

A6G G17C: the self-cleavage came out at 0.494.

Regarding A6G G17A, the self-cleavage is 0.389.

For G5U G35U, the self-cleavage came out at 0.516.

In the case of G5U G35C, the self-cleavage was 0.361.

Take G5U G35A: the self-cleavage was found to be 0.476.

Consider A6G G10C, for which the self-cleavage worked out at 0.889.

Turning to A6G G10A, the self-cleavage is 0.989.

A6G G10U: the self-cleavage was found to be 1.1.

Take A6C G18U: the self-cleavage is 0.428.

On to A6C G18A, for which the self-cleavage was 0.311.

A6C G18C: the self-cleavage stood at 0.311.

Consider A6C G35C, for which the self-cleavage was 0.391.

Consider A6C G35A, for which the self-cleavage came to 0.568.

For A6C G35U, the self-cleavage is 0.744.

A6G C11A: the self-cleavage stood at 0.965.

With A6G C11G, the self-cleavage was 0.921.

On to A6G C11U, for which the self-cleavage worked out at 0.796.

For A6U A42C, the self-cleavage was 0.238.

Consider A6U A42G, for which the self-cleavage stood at 0.307.

Regarding A6U A42U, the self-cleavage is 0.241.

As for A6G U19C, the self-cleavage is 0.486.

For the variant A6G U19A, the self-cleavage stood at 0.278.

As to A6G U19G, the self-cleavage was found to be 0.264.

With A6G G39C, the self-cleavage was 0.297.

Turning to A6G G39U, the self-cleavage worked out at 0.248.

Take A6G G39A: the self-cleavage is 0.31.

For the variant G5U U13C, the self-cleavage stood at 1.15.

Turning to G5U U13G, the self-cleavage was 1.02.

Regarding G5U U13A, the self-cleavage is 1.37.

As to G5U U14C, the self-cleavage is 0.837.

Regarding G5U U14A, the self-cleavage was found to be 1.24.

On to G5U U14G, for which the self-cleavage is 1.29.

Take A6G G36C: the self-cleavage stood at 0.351.

A6G G36A: the self-cleavage amounted to 0.624.

For A6G G36U, the self-cleavage was 0.314.

Turning to A6G C43U, the self-cleavage came to 0.321.

As for A6G C43G, the self-cleavage is 0.284.

Turning to A6G C43A, the self-cleavage amounted to 0.217.

A6G G18U: the self-cleavage turned out to be 0.468.

For A6G G18A, the self-cleavage was found to be 0.486.

Regarding A6G G18C, the self-cleavage was 0.351.

On to A6G A41U, for which the self-cleavage is 0.273.

With A6G A41G, the self-cleavage worked out at 0.266.

As to A6G A41C, the self-cleavage worked out at 0.299.

For A6G G27U, the self-cleavage came to 0.356.

For the variant A6G G27C, the self-cleavage was determined as 0.45.

On to A6G G27A, for which the self-cleavage came out at 0.657.

Regarding A6G G35U, the self-cleavage worked out at 0.465.

Take A6G G35A: the self-cleavage turned out to be 0.302.

Turning to A6G G35C, the self-cleavage is 0.684.

As to A6C U24C, the self-cleavage amounted to 0.387.

Turning to A6C U24G, the self-cleavage was 0.511.

For A6C U24A, the self-cleavage came to 0.707.

On to A6C U12G, for which the self-cleavage was found to be 0.991.

For A6C U12C, the self-cleavage was found to be 0.899.

For the variant A6C U12A, the self-cleavage stood at 0.826.

Regarding A6C U7A, the self-cleavage is 0.311.

Consider A6C U7G, for which the self-cleavage turned out to be 0.392.

In the case of A6C U7C, the self-cleavage turned out to be 0.577.

As to A6C A34G, the self-cleavage was found to be 0.722.

A6C A34C: the self-cleavage was determined as 0.745.

A6C A34U: the self-cleavage was 0.529.

Turning to A6C G27A, the self-cleavage is 0.56.

Turning to A6C G27U, the self-cleavage was found to be 0.38.

With A6C G27C, the self-cleavage worked out at 0.478.

For the variant G5U U24C, the self-cleavage was found to be 0.922.

Turning to G5U U24G, the self-cleavage was found to be 0.636.

For G5U U24A, the self-cleavage came to 0.809.

Consider A6C C16U, for which the self-cleavage came to 0.689.

Take A6C C16G: the self-cleavage came to 0.372.

In the case of A6C C16A, the self-cleavage was determined as 0.643.

With A6G U24C, the self-cleavage stood at 0.944.

Consider A6G U24G, for which the self-cleavage was 0.777.

As to A6G U24A, the self-cleavage was 0.597.

In the case of A6G U9A, the self-cleavage was 0.796.

As to A6G U9C, the self-cleavage was 0.834.

Turning to A6G U9G, the self-cleavage was determined as 1.09.

With A6C U13C, the self-cleavage was determined as 0.598.

Consider A6C U13G, for which the self-cleavage was determined as 0.673.

With A6C U13A, the self-cleavage came out at 0.906.

As for A6C A41G, the self-cleavage is 0.374.

In the case of A6C A41C, the self-cleavage is 0.274.

Regarding A6C A41U, the self-cleavage is 0.383.

As to A6U A26C, the self-cleavage was found to be 0.393.

As to A6U A26G, the self-cleavage came to 0.291.

For the variant A6U A26U, the self-cleavage worked out at 0.588.

Take A6G C16G: the self-cleavage came to 0.537.

For the variant A6G C16U, the self-cleavage was found to be 0.762.

As to A6G C16A, the self-cleavage was 0.825.

As for A6C U28A, the self-cleavage was determined as 0.191.

A6C U28G: the self-cleavage worked out at 0.354.

Turning to A6C U28C, the self-cleavage turned out to be 0.604.

In the case of G5U G25C, the self-cleavage came to 0.301.

On to G5U G25A, for which the self-cleavage stood at 0.351.

As for G5U G25U, the self-cleavage was 0.355.

Take A6G A26U: the self-cleavage came to 0.71.

In the case of A6G A26G, the self-cleavage came out at 0.303.

A6G A26C: the self-cleavage was 0.396.

On to G5U U21A, for which the self-cleavage came to 0.45.

With G5U U21C, the self-cleavage is 0.668.

For the variant G5U U21G, the self-cleavage turned out to be 0.419.

Consider A6U A23U, for which the self-cleavage stood at 0.311.

As to A6U A23C, the self-cleavage amounted to 0.368.

With A6U A23G, the self-cleavage stood at 0.249.

Take A6U C16A: the self-cleavage is 0.471.

Regarding A6U C16U, the self-cleavage came to 0.655.

Turning to A6U C16G, the self-cleavage turned out to be 0.459.

With A6C A26C, the self-cleavage is 0.348.

As to A6C A26G, the self-cleavage amounted to 0.147.

For the variant A6C A26U, the self-cleavage turned out to be 0.337.

As to A6C U32A, the self-cleavage turned out to be 0.901.

With A6C U32C, the self-cleavage turned out to be 0.838.

As for A6C U32G, the self-cleavage turned out to be 0.477.

Turning to A6C G45U, the self-cleavage was determined as 0.44.

As to A6C G45A, the self-cleavage worked out at 0.384.

Regarding A6C G45C, the self-cleavage amounted to 0.433.

On to A6G U32C, for which the self-cleavage came out at 0.931.

Consider A6G U32G, for which the self-cleavage was determined as 0.431.

In the case of A6G U32A, the self-cleavage is 0.968.

Regarding A6G G22C, the self-cleavage was 0.284.

With A6G G22A, the self-cleavage was 0.239.

Consider A6G G22U, for which the self-cleavage amounted to 0.28.

In the case of A6G G31A, the self-cleavage came out at 0.853.

Regarding A6G G31C, the self-cleavage amounted to 0.979.

As for A6G G31U, the self-cleavage amounted to 0.945.

As to A6U A40U, the self-cleavage was determined as 0.351.

For A6U A40G, the self-cleavage is 0.317.

For the variant A6U A40C, the self-cleavage stood at 0.268.

In the case of A6C C38A, the self-cleavage turned out to be 0.469.

In the case of A6C C38U, the self-cleavage was 0.67.

As for A6C C38G, the self-cleavage stood at 0.427.

For the variant A6U A44G, the self-cleavage was determined as 1.12.

Consider A6U A44C, for which the self-cleavage was 0.455.

In the case of A6U A44U, the self-cleavage amounted to 0.36.

As for A6C G17U, the self-cleavage turned out to be 0.37.

For A6C G17A, the self-cleavage was found to be 0.348.

For A6C G17C, the self-cleavage is 0.269.

A6C G39C: the self-cleavage came out at 0.368.

Take A6C G39U: the self-cleavage worked out at 0.271.

Regarding A6C G39A, the self-cleavage was 0.311.

As for G5U U7C, the self-cleavage turned out to be 0.716.

In the case of G5U U7G, the self-cleavage is 0.708.

Consider G5U U7A, for which the self-cleavage was 0.87.

Take A6C A42U: the self-cleavage is 0.295.

As to A6C A42G, the self-cleavage came out at 0.329.

Turning to A6C A42C, the self-cleavage came out at 0.35.

Regarding A6G U14A, the self-cleavage was determined as 0.436.

For A6G U14C, the self-cleavage worked out at 0.704.

On to A6G U14G, for which the self-cleavage came to 1.13.

In the case of A6G G45A, the self-cleavage worked out at 0.556.

For A6G G45C, the self-cleavage stood at 0.433.
